Where a chain is given by its changes, count along the chain named. Names may count otherwise.
B1: MPH12 VH-FRGL / MPH12 VL-FRGL (antibody, V domains shown)
VH: QVQLVESGGGLVKPGGSLRLSCAASGFTFSGFYMKWIRQAPGKGLEWVSSISASGSYTNYADSVEGRFTISRDNAKNSLYLQMNSLRAEDTAVYYCARGDSYCGASACHGEFFHKWGQGTLVTVSS
VL: QSVLTQPPSVSGAPGQRVTISCTGSDSNIGADFDVHWYQQLPGTAPKLLIYGNINRPSGVPDRFSGSKSGTSASLAITGLQAEDEADYYCQSYDRSLHYVFGTGTKVTVL
notes: MPH12 variant; VH and VL only
B2: MPH12 VH-D62E / MPH12 VL-FRGL (antibody, V domains shown)
VH: B1 VH with A23V, D62E, I70V, Y80F, Q82L, N84S
VL: B1 VL
notes: MPH12 variant; VH and VL only
B3: MPH12 VH-FRGL / MPH12 VL-S26A (antibody, V domains shown)
VH: B1 VH
VL: B1 VL with S27A, K68R, S74F, G79R, T103A
notes: MPH12 variant; VH and VL only
B4: MPH12 VH-D62E / MPH12 VL-S26A (antibody, V domains shown)
VH: B1 VH with A23V, D62E, I70V, Y80F, Q82L, N84S
VL: B1 VL with S27A, K68R, S74F, G79R, T103A
notes: MPH12 variant; VH and VL only
B5: MPH12 VH-S63A / MPH12 VL-D25S (antibody, V domains shown)
VH: B1 VH with A23V, S63A, I70V, Y80F, Q82L, N84S
VL: B1 VL with D26S, K68R, S74F, G79R, T103A
notes: MPH12 variant; VH and VL only
B6: MPH12 VH-S63A / MPH12 VL-FRGL (antibody, V domains shown)
VH: B1 VH with A23V, S63A, I70V, Y80F, Q82L, N84S
VL: B1 VL
notes: MPH12 variant; VH and VL only
B7: MPH12 VH-FRGL-D62E / MPH12 VL-FRGL (antibody, V domains shown)
VH: B1 VH with D62E
VL: B1 VL
notes: MPH12 variant; VH and VL only
B8: MPH12 VH-FRGL-S63A / MPH12 VL-D25E (antibody, V domains shown)
VH: B1 VH with S63A
VL: B1 VL with D26E, K68R, S74F, G79R, T103A
notes: MPH12 variant; VH and VL only
B9: MPH12 VH-S63A / MPH12 VL (antibody, V domains shown)
VH: B1 VH with A23V, S63A, I70V, Y80F, Q82L, N84S
VL: B1 VL with K68R, S74F, G79R, T103A
notes: MPH12 variant; VH and VL only
B10: MPH12 VH-S63A / MPH12 VL-S26A (antibody, V domains shown)
VH: B1 VH with A23V, S63A, I70V, Y80F, Q82L, N84S
VL: B1 VL with S27A, K68R, S74F, G79R, T103A
notes: MPH12 variant; VH and VL only
B11: MPH12 VH-FRGL-S63A / MPH12 VL-FRGL (antibody, V domains shown)
VH: B1 VH with S63A
VL: B1 VL
notes: MPH12 variant; VH and VL only
B12: MPH12 VH-D62E / MPH12 VL-D25S (antibody, V domains shown)
VH: B1 VH with A23V, D62E, I70V, Y80F, Q82L, N84S
VL: B1 VL with D26S, K68R, S74F, G79R, T103A
notes: MPH12 variant; VH and VL only
B13: MPH12 VH-FRGL / MPH12 VL-D25E (antibody, V domains shown)
VH: B1 VH
VL: B1 VL with D26E, K68R, S74F, G79R, T103A
notes: MPH12 variant; VH and VL only
B14: MPH12 VH-D62E / MPH12 VL (antibody, V domains shown)
VH: B1 VH with A23V, D62E, I70V, Y80F, Q82L, N84S
VL: B1 VL with K68R, S74F, G79R, T103A
notes: MPH12 variant; VH and VL only
B15: MPH12 VH-FRGL-S63A / MPH12 VL (antibody, V domains shown)
VH: B1 VH with S63A
VL: B1 VL with K68R, S74F, G79R, T103A
notes: MPH12 variant; VH and VL only
B16: MPH12 VH-FRGL / MPH12 VL-D25S (antibody, V domains shown)
VH: B1 VH
VL: B1 VL with D26S, K68R, S74F, G79R, T103A
notes: MPH12 variant; VH and VL only
B17: MPH12 VH-S63A / MPH12 VL-D25E (antibody, V domains shown)
VH: B1 VH with A23V, S63A, I70V, Y80F, Q82L, N84S
VL: B1 VL with D26E, K68R, S74F, G79R, T103A
notes: MPH12 variant; VH and VL only
B18: MPH12 VH-FRGL / MPH12 VL (antibody, V domains shown)
VH: B1 VH
VL: B1 VL with K68R, S74F, G79R, T103A
notes: MPH12 variant; VH and VL only
B19: MPH12 VH-D62E / MPH12 VL-D25E (antibody, V domains shown)
VH: B1 VH with A23V, D62E, I70V, Y80F, Q82L, N84S
VL: B1 VL with D26E, K68R, S74F, G79R, T103A
notes: MPH12 variant; VH and VL only
B20: MPK158 (antibody, V domains shown)
VH: EVQLVESGGGLVKPGGSLRLSCAASGFSISGFYMIWIRQAPGKGLEWISDISASSSYIDYADSVKGRFTISRDNGQNTVHLLMNNLRADDTGVYYCAREQTPSPGPFDLWGQGTLVTVST
VL: QPVLTQPPSVSGAPGQRVTISCTGRSSNIGAGYDVHWYQHLPGTSPKLLIYRNSNRPSGVPDRFSGSTSGTSASLAITGLQADDEADYYCQAYDRILGGWAFGGGTKLTVL
notes: VH and VL only
B21: MPK174-v2 (antibody, V domains shown)
VH: EVQLVESGGGLVKPGGSLRLSCAASRFKFGDYYMSWIRQAPGKGLEWVSNISPSSSYTNYADSVKGRFTISRDNAKNLLYLQMNSLRAEDTAVYYCARESCSGGSCSLHGMDVWGQGTTVTVAS
VL: QSVLTQPPSVSGAPGQRVTISCTGSSSNIGAGYDVHWYQQLPGTAPKLLIYDNSNRPSGVPDRFSGSKSGTSASLAITGLRAEDDADYYCQSYDRSLGGSIFGGGTKLTVL
notes: VH and VL only
B22: MPK196 (antibody, V domains shown)
VH: B21 VH with E1Q, K76N
VL: B21 VL
notes: VH and VL only
B23: MPK162 (antibody, V domains shown)
VH: EVQLVESGGGLVKPGDSLRLSCAASGFSLSSYYMFWIRQAPGKGLEWVSDISGGSTFTNYADSVKGRFTISRDNAKKVLYLQMNSLRVDDSAVYYCVRGSSISPNWFESWGQGALVTVSS
VL: QSVLTQPPSVSGAPGQRVTISCTGTSSNIGAGYDVHWYQQVPGTAPKLLIYGNSNRPSGVPDRFSGSKSGTAASLAINGLQTEDEAEYYCQSYDRSLTGSYVFGSGTRVFVR
notes: VH and VL only
B24: MPK157 (antibody, V domains shown)
VH: EVQLVESGGGLVKPGGSLRLSCSASGFTLSGYNMNWVRQAPGKGLEWISYISASSSYINYADSVKGRFTISRDNGRSSLYLQMNSLRAEDTAVYFCTTQAELPGWFDPWGQGTLVTVSS
VL: QSVLTQPPSMSGAPGQRVTISCTGSSSNIGAGYDVNWYRQLPGTAPQLLIYRNTNRPSGVPDRFSGSNSGTSASLAITGLQADDEAHYYCQSYDRSLSGWVFGGGTKLTVL
notes: VH and VL only
B25: MPK149 (antibody, V domains shown)
VH: QVQLVESGGGLVKPGGSLRLSCEASGFTISGYFMIWIRQAPGKGLEWISSISGSSTYTDYAESVKGRFTISRDNGRSTLYLQMNSLRVEDTAVYYCATEQTPSPGPFDLWGQGTLVTVSS
VL: QSVVTQPPSVSGAPGQRVTISCTGTSSNIGAGYDVHWYQQFPGTSPRLLINRNTNRPSGVPDRFSGSQSGSSASLAIAGLQAEDEADYYCQSYDRSVSGWVFGGGTKLTVL
notes: VH and VL only
B26: MPK152 (antibody, V domains shown)
VH: EVQLVESGGGLVKPGGSLRLSCAASGLTISGYYMIWIRQAPGKGLEWISYISGSSSYTNYADSVKGRFTISRDNGQNTLFLQMDSLRVEDTAVYFCATEETPSPGPFGLWGQGTLVTVSS
VL: B25 VL with R47K, N51F, Q68T, A78T, A82T, V97L, S98D, K107E
notes: VH and VL only
B27: MPK150-v2 (antibody, V domains shown)
VH: EVQLVESGGGLVKPGGSLRLSCEASGISLSGYYMIWIRQAPGKGLEWISSISGSSTYIDYADSVRGRFTISRHNGQNTIYLQMNSLRVEDTAVYFCATEQTPSPGPFELWGRGILVTVSS
VL: B25 VL with V4L, S21F, A31T, R47K, N51F, T54S, Q68K, S96G, S98N
notes: VH and VL only
B28: MPK153 (antibody, V domains shown)
VH: EVHLVESGGGLVKPGGSLRLSCAASGFTFTGYFMIWIRQAPGKGLEWISYISSSSNYINYADSVKGRFTISRDNGQNTLYLQMNSLRPDDTAVYYCATEQVPSPGPFDLWGQGTLVTVSS
VL: B25 VL with V4L, T19I, T44A, R47K, N51F, N55D, Q68K, V97L, S98D, L108V
notes: VH and VL only
B29: MPK145 (antibody, V domains shown)
VH: EVQLVESGGGLVEPGGSLRLSCAASGFTISGYGMSWVRQAPGKGLEWVSSISASSSYIYYGDAMKGRITISRDNGWNSMYLQMNSLRTEDTAVYYCATAPIEPPYFDLWGRGTLVTVSS
VL: QSVVTQPPSVSGAPGQRVTISCTGSSSNIGAGYDVHWYQQFPGKAPKVLIYGNNNRPSGVPDRFAASNSGASASLAITGLQAEDEAAYFCQSYDRRLSGPVFGGGTKLTVL
notes: VH and VL only
B30: MPK146 (antibody, V domains shown)
VH: QVQLVESGGGLVKPGGSLRLSCAASGFTFSGYYMIWIRQAPGKGLEWIASISGSSNYIDYADSVRGRFTISRDNARNILDLQMNSLRAGDTALYYCATEQVPSPGPFDLWGQGTLVTVSS
VL: QSVLTQPPSVSGAPGQRVTISCTGSNSNLGAGYDVHWYQQFPGTSPKLLIYRNTNRPSGVPDRFAGSKSGTSASLAITGLQAEDEADYYCQSYDRSLSGWVFGGGTKLTVL
notes: VH and VL only
B31: MPK204 (antibody, V domains shown)
VH: B27 VH with E1Q, I27L, G53S, T56N, R65K, I79L, F95Y, E108D, R112Q, I114T
VL: B25 VL with V4L, A31T, R47K, N51Y, Q68K
notes: VH and VL only
B32: MPK151 (antibody, V domains shown)
VH: EVQLVESGGGLVKPGGSLRLSCAASGLTISGYYMIWIRQAPGKGLEWISDISASSTYTDYAESVKGRFSISRDNGQNTVYLQMNSLRAEDTAVYYCATEQTPSPGPFDLWGQGTLVTVSS
VL: B30 VL with R17K, V18I, S25G, N26S, L29F, N55F, A65S
notes: VH and VL only
B33: MPK155 (antibody, V domains shown)
VH: B27 VH with G53S, T56N, I79L, E108D, R112Q
VL: B25 VL with V4L, S21F, I29L, R47K, N51Y, N53Y, Q68K
notes: VH and VL only

What follows are binders tested against T1, DS-Cav1 RSV F (respiratory syncytial virus) (assay: ELISA on DS-Cav1 RSV F).
T1 construct: also called DC-VCav1
With B1 the EC50 was 0.0305 µg/mL.
B2 gave an EC50 of 0.0267 µg/mL.
B3 was tested, and the EC50 was 0.0397 µg/mL.
B4 showed an EC50 of 0.031 µg/mL.
Binder B5 has an EC50 of 0.0249 µg/mL.
B6 was tested, and the EC50 was 0.0254 µg/mL.
B7 was tested, and the EC50 was 0.0349 µg/mL.
In the case of B8, the EC50 is reported as 0.0368 µg/mL.
B9 showed an EC50 of 0.0358 µg/mL.
With B10 the EC50 was 0.0258 µg/mL.
With B11 the EC50 was 0.0153 µg/mL.
Binder B12 has an EC50 of 0.0236 µg/mL.
Binder B13 has an EC50 of 0.034 µg/mL.
Binder B14 has an EC50 of 0.0241 µg/mL.
In the case of B15, the EC50 is reported as 0.0238 µg/mL.
In the case of B16, the EC50 is reported as 0.0219 µg/mL.
For B17, the EC50 was 0.0406 µg/mL.
Work on B18 yielded an EC50 of 0.0328 µg/mL.
For B19, the EC50 was 0.0274 µg/mL.

Each binder was assayed against RSV fusion glycoprotein (RSV-F) (respiratory syncytial virus) (assay: SPR; F protein loaded on streptavidin sensors, mAb in solution).
Description: Binding affinity of mAbs for RSV-F protein, MPV-F D280 protein, and MPV-F N280 F variant protein was assessed using surface plasmon resonance (SPR).
B20 gave a Kd of 1 pM.
Binder B21 has a Kd of 1 pM.
B22 gave a Kd of 1 pM.
Binder B23 has a Kd of 100000 pM.
Binder B24 has a Kd of 1 pM.
B25 gave a Kd of 1 pM.
B26 was tested, and the Kd was 1 pM.
B27 showed a Kd of 1 pM.
B28 showed a Kd of 460 pM.
For B29, the Kd was 1 pM.
B30 gave a Kd of 9.5 pM.
Binder B31 has a Kd of 290 pM.
Work on B32 yielded a Kd of 80 pM.
With B33 the Kd was 6.3 pM.

Source: US20260028391A1 (HUMABS BIOMED, published 2026)
